Stoichiometry N data for one substance are collected here from article PMC9318220.

The target in this experiment is conSOSL.UFO.664 trimer with a C-terminal 8x His-tag (SUFO.664-His) (HIV-1 (consensus S)). Briefly: SEC + native gel or EMSA; SEC on HiPrep 26/60 Sephacryl S-300 HR after lectin affinity; eluted fractions analysed by Native-PAGE with silver stain and Western blot.

In general, stoichiometry N refers to the number of molecules, sites or subunits per partner or assembly.

As for “conSOSL.UFO.664 trimer with a C-terminal 8x His-tag (SUFO.664-His)”, the stoichiometry N is 3.
